From PMC3784563

Biological target: Argonaute 1 (Ago1) (human (endogenous in PC-3, LNCaP, HCT116)) (UniProt Q9UL18)
Test: co-IP; nuclear extracts from PC-3 cells; IP with anti-Ago1 (Wako 2A7) or anti-Ago2 (Wako 4G8), immunoblot for RNAP II; 10 mM Tris-HCl pH 8.0, 150 mM NaCl, 1 mM EDTA, 1 mM DTT, 0.1% NP-40, overnight at 4°C, protein G dynabeads; also done after transfection with siControl, siDicer or siDrosha (50 nM, 72 hrs)

RNA polymerase II (from UniProt P24928 1-1970) (complex)
decrease of the ratio of bound RNAP II to nuclear Ago1 after siDicer: 70%
